Substitutions are numbered along the chain they refer to. In names and notes the source's numbering stands.
T1: CD32B (FcγRII-B) (UniProt P31994 43-217, limits assumed)
T1 construct: No species or construct stated
T1 sequence (looked up): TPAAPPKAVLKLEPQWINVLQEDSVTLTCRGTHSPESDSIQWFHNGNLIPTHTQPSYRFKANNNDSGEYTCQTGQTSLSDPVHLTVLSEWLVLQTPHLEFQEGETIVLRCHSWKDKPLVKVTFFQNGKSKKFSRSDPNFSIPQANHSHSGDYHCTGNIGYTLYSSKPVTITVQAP

B1: ch4D5-FcMT1 (antibody, human IgG1, kappa)
heavy: QVQLQQSGPELVKPGASLKLSCTASGFNIKDTYIHWVKQRPEQGLEWIGRIYPTNGYTRYDPKFQDKATITADTSSNTAYLQVSRLTSEDTAVYYCSRWGGDGFYAMDYWGQGASVTVSSASTKGPSVFPLAPSSKSTSGGTAALGCLVKDYFPEPVTVSWNSGALTSGVHTFPAVLQSSGLYSLSSVVTVPSSSLGTQTYICNVNHKPSNTKVDKRVEPKSCDKTHTCPPCPAPELLGGPSVFLLPPKPKDTLMISRTPEVTCVVVDVSHEDPEVKFNWYVDGVEVHNAKTKPPEEQYNSTLRVVSILTVLHQDWLNGKEYKCKVSNKALPAPIEKTISKAKGQPREPQVYTLPPSRDELTKNQVSLTCLVKGFYPSDIAVEWESNGQPENNYKTTPLVLDSDGSFFLYSKLTVDKSRWQQGNVFSCSVMHEALHNHYTQKSLSLSPGK
light: DIVMTQSHKFMSTSVGDRVSITCKASQDVNTAVAWYQQKPGHSPKLLIYSASFRYTGVPDRFTGSRSGTDFTFTISSVQAEDLAVYYCQQHYTTPPTFGGGTKVEIKRTVAAPSVFIFPPSDEQLKSGTASVVCLLNNFYPREAKVQWKVDNALQSGNSQESVTEQDSKDSTYSLSSTLTLSKADYEKHKVYACEVTHQGLSSPVTKSFNRGEC
B2: ch4D5-wild-type Fc (antibody, human IgG1, kappa)
heavy: not shown
light: B1 light
notes: Chimeric 4D5 antibody; wild-type Fc; also called ch4D5-FcWT; ch4D5-FcWT (wild-type Fc)
B3: Fc variant D270E G316D P396L R416G (other, UniProt P01857-1 99-330, looked up, name in EU numbering)
chain: EPKSCDKTHTCPPCPAPELLGGPSVFLFPPKPKDTLMISRTPEVTCVVVDVSHEEPEVKFNWYVDGVEVHNAKTKPREEQYNSTYRVVSVLTVLHQDWLNDKEYKCKVSNKALPAPIEKTISKAKGQPREPQVYTLPPSRDELTKNQVSLTCLVKGFYPSDIAVEWESNGQPENNYKTTPLVLDSDGSFFLYSKLTVDKSGWQQGNVFSCSVMHEALHNHYTQKSLSLSPGK
notes: domain: Fc region; positions are EU index; also called D270E P396L G316D R416G
B4: Fc variant F243L D270E K392T P396L (other, UniProt P01857-1 99-330, looked up, name in EU numbering)
chain: B3 chain with F28L, D101G, K177T, G201R
notes: domain: Fc region; positions are EU index
B5: Fc variant R255L D270E P396L (other, UniProt P01857-1 99-330, looked up, name in EU numbering)
chain: B3 chain with R40L, D101G, G201R
notes: as for B4
B6: Fc variant F243L P247L D270E N421K (other, UniProt P01857-1 99-330, looked up, name in EU numbering)
chain: B3 chain with F28L, P32L, D101G, L181P, G201R, N206K
notes: as for B4
B7: Fc variant D270E G316D R416G (other, UniProt P01857-1 99-330, looked up, name in EU numbering)
chain: B3 chain with L181P
notes: as for B4
B8: Fc variant F243L R292P Y300L P396L (other, UniProt P01857-1 99-330, looked up, name in EU numbering)
chain: B3 chain with F28L, E55D, R77P, Y85L, D101G, G201R
notes: as for B4
B9: Fc variant F243L D270E G316D R416G (other, UniProt P01857-1 99-330, looked up, name in EU numbering)
chain: B3 chain with F28L, L181P
notes: as for B4
B10: Fc variant F243L R292P Y300L V305I P396L (other, UniProt P01857-1 99-330, looked up, name in EU numbering)
chain: B3 chain with F28L, E55D, R77P, Y85L, V90I, D101G, G201R
notes: domain: Fc region
B11: Fc variant F243L R255L D270E P396L (other, UniProt P01857-1 99-330, looked up, name in EU numbering)
chain: B3 chain with F28L, R40L, D101G, G201R
notes: as for B4
B12: Fc variant D270E P396L Q419H (other, UniProt P01857-1 99-330, looked up, name in EU numbering)
chain: B3 chain with D101G, G201R, Q204H
notes: as for B4
B13: Fc variant R255L D270E R292G P396L (other, UniProt P01857-1 99-330, looked up, name in EU numbering)
chain: B3 chain with R40L, R77G, D101G, G201R
notes: as for B4
B14: Fc variant F243L D270E P396L Q419H (other, UniProt P01857-1 99-330, looked up, name in EU numbering)
chain: B3 chain with F28L, D101G, G201R, Q204H
notes: as for B4
B15: Fc variant P247L D270E N421K (other, UniProt P01857-1 99-330, looked up, name in EU numbering)
chain: B3 chain with P32L, D101G, L181P, G201R, N206K
notes: as for B4
B16: Fc variant R255L D270E Y300L P396L (other, UniProt P01857-1 99-330, looked up, name in EU numbering)
chain: B3 chain with R40L, Y85L, D101G, G201R
notes: as for B4
B17: Fc variant F243L P247L N421K (other, UniProt P01857-1 99-330, looked up, name in EU numbering)
chain: B3 chain with F28L, P32L, E55D, D101G, L181P, G201R, N206K
notes: as for B4
B18: Fc variant R292P V305I P396L (other, UniProt P01857-1 99-330, looked up, name in EU numbering)
chain: B3 chain with E55D, R77P, V90I, D101G, G201R
notes: as for B4
B19: Fc variant D270E K392T P396L (other, UniProt P01857-1 99-330, looked up, name in EU numbering)
chain: B3 chain with D101G, K177T, G201R
notes: as for B4
B20: Fc variant F243L R292P V305I P396L (other, UniProt P01857-1 99-330, looked up, name in EU numbering)
chain: B3 chain with F28L, E55D, R77P, V90I, D101G, G201R
notes: as for B4
B21: Fc variant F243L R292P V305I (other, UniProt P01857-1 99-330, looked up, name in EU numbering)
chain: B3 chain with F28L, E55D, R77P, V90I, D101G, L181P, G201R
notes: as for B4

Biological target: human CD16A (FcγRIII-A) (human, UniProt P08637 17-208, limits assumed)
Sequence (P08637 17-208 limits assumed): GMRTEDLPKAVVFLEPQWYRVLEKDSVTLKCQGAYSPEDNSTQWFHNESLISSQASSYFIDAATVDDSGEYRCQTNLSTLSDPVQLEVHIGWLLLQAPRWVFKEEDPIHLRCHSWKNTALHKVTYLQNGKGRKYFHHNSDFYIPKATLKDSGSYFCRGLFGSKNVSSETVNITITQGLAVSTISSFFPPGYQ
Test: method not stated; reference not named (Fc-optimized against wild-type)

| fold increase in binding | Binder |
| --- | --- |
| 10 fold | B1 |

Biological target: T2, HER-2 (UniProt P04626 23-652, limits assumed)
T2 construct: also called HER2/neu; erbB-2
Test: SPR (BIAcore 1000), HER-2 amine-coupled to chip, antibody injected at 6.25-200 nM
Experimental: The kinetic parameters of the binding of eluted and purified antibodies were analyzed using a BIAcore assay (BIAcore instrument 1000, BIAcore Inc., Piscataway, N.J.) and associated software. HER-2 was immobilized on one of the four flow cells (flow cell 2) of a sensor chip surface through amine coupling chemistry (by modification of carboxymethyl groups with mixture of NHS/EDC) such that about 1000 response units (RU) of receptor was immobilized on the surface. Following this, the unreacted active esters were “capped off” with an injection of 1M Et-NH2.

| koff | kon | Binder |
| --- | --- | --- |
| ~3.2e-07 s⁻¹ | 170000 M⁻¹ s⁻¹ | B2 |

Biological target: T1, CD32B (FcγRII-B)
Test: Table 3; relative to wild-type Fc; method not stated

| binding relative to wild-type Fc (fold) | Binder |
| --- | --- |
| 1.07 | B3 |
| 0.44 | B4 |
| 0.87 | B5 |
| 0.32 | B6 |
| 0.78 | B7 |
| 1.07 | B8 |
| 0.2 | B9 |
| 1.38 | B10 |
| 0.38 | B11 |
| 0.68 | B12 |
| 0.65 | B13 |
| 0.26 | B14 |
| 0.58 | B15 |
| 0.87 | B16 |
| 0.17 | B17 |
| 0.92 | B18 |
| 0.79 | B19 |
| 0.4 | B20 |

Biological target: CD16A F158 (human, UniProt P08637 17-208, limits assumed)
Sequence (P08637 17-208 limits assumed): as above
Test: as above

| binding relative to wild-type Fc (fold) | Binder |
| --- | --- |
| 0.94 | B3 |
| 1.43 | B21 |
| 2.44 | B4 |
| 1.65 | B5 |
| 3.45 | B6 |
| 2.49 | B7 |
| 5.62 | B8 |
| 1.34 | B9 |
| 8.25 | B10 |
| 1.64 | B11 |
| 1.15 | B14 |
| 2.46 | B15 |
| 1.74 | B16 |
| 1.71 | B17 |
| 1.9 | B18 |
| 2.28 | B19 |
| 2.53 | B20 |

Biological target: CD16A V158 (human, UniProt P08637 17-208, limits assumed)
Sequence (P08637 17-208 F176V limits assumed): as the sequence (P08637 17-208 limits assumed) above, with F160V counted along it
Test: as above

| binding relative to wild-type Fc (fold) | Binder |
| --- | --- |
| 1.22 | B3 |
| 2.56 | B21 |
| 3.16 | B4 |
| 1.34 | B5 |
| 2.3 | B6 |
| 2.18 | B7 |
| 10.1 | B8 |
| 1.5 | B9 |
| 10.1 | B10 |
| 1.75 | B11 |
| 1.64 | B12 |
| 1.46 | B14 |
| 1.89 | B15 |
| 1.52 | B16 |
| 1.89 | B17 |
| 1.85 | B18 |
| 1.81 | B19 |
| 5.37 | B20 |
